{"source": "paper PMC8444577", "origin": "cited, not measured here", "biological_target": "IL-18 (Homo sapiens) (UniProt Q14116)", "sequence (Q14116 37-193)": "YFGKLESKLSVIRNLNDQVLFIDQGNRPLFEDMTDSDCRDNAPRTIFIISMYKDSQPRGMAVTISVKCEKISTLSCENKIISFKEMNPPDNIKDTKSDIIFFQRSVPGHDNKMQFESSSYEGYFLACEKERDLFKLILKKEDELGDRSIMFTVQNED", "data": [{"substance": "IL-18BP (from UniProt O95998)", "values": [{"measurement": "Kd", "result": 0.4, "unit": "nM"}]}]}
